{"source": "patent CN115141270A", "about": "(SHENZHEN KANGMAI BIOTECHNOLOGY CO LTD, dated 2022)", "key": {"[1]": {"target": "SARS-CoV-2 英国流行株 (MW255832) live virus, spike glycoprotein (SARS-CoV-2)", "assay": "cell-based or functional assay"}, "[2]": {"target": "SARS-CoV-2 东南亚株 (MW341443) live virus, spike glycoprotein (SARS-CoV-2)", "assay": "cell-based or functional assay"}}, "data": [{"binder": "抗体nCoV617 (anti-coronavirus spike glycoprotein human monoclonal antibody) (antibody, V domains shown, also called 抗S蛋白抗体; 抗冠状病毒刺突糖蛋白单克隆抗体) VH: QVQLVESGGGVVQPGRSLRLSCAASGFTFSSYAMHWVRQAPGKGLEWVALISYDGSNKYYADSVKGRFTISRDNSKNTLYLQMNSLRAEDTAVYYCARGLGLRFLEWPISSYWGQGTLVTVSS VL: not shown", "values": [{"measurement": "IC50 (neutralisation of live virus on Vero E6 cells, cytopathic effect)", "setting": "[1]", "value": 1.1, "unit": "µg/mL"}, {"measurement": "IC50 (neutralisation of live virus on Vero E6 cells, cytopathic effect)", "setting": "[2]", "value": 0.87, "unit": "µg/mL"}]}]}
